{"source": "IntAct's records for PubMed 17997972", "parents": {"B1": {"name": "Nuclear distribution protein nudE-like 1 (Homo sapiens), Q9GZM8 (parent)", "chain": "MDGEDIPDFSSLKEETAYWKELSLKYKQSFQEARDELVEFQEGSRELEAELEAQLVQAEQRNRDLQADNQRLKYEVEALKEKLEHQYAQSYKQVSVLEDDLSQTRAIKEQLHKYVRELEQANDDLERAKRATIVSLEDFEQRLNQAIERNAFLESELDEKESLLVSVQRLKDEARDLRQELAVRERQQEVTRKSAPSSPTLDCEKMDSAVQASLSLPATPVGKGTENTFPSPKAIPNGFGTSPLTPSARISALNIVGDLLRKVGALESKLAACRNFAKDQASRKSYISGNVNCGVLNGNGTKFSRSGHTSFFDKGAVNGFDPAPPPPGLGSSRPSSAPGMLPLSV", "partner": "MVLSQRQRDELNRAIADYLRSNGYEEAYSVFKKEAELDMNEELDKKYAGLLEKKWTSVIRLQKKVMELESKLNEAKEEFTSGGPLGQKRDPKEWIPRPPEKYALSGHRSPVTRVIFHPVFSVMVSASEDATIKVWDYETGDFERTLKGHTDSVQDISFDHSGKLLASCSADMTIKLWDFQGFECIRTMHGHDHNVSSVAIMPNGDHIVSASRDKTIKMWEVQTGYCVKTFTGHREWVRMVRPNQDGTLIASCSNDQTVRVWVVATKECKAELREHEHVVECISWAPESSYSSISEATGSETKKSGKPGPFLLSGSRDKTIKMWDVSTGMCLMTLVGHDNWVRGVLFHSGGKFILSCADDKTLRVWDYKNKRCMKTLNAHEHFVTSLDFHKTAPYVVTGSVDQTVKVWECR"}}, "data": [{"variants_of": "B1", "conditions": "with lis1_mouse Pafah1b1, P63005", "values": [{"variant": "R130A", "effect of a mutation on the interaction": "disrupting interaction"}, {"variant": "E119A", "effect of a mutation on the interaction": "disrupting interaction"}]}]}
